Assay results reported in paper PMC6004067 (Genes & Development, 2018).
Substitutions are numbered along the chain they refer to. Names may count otherwise. Blank lines part the entries; values can stand above or below the binder they belong to.

Assays:
Conditions in all cases: both partners purified
[1] = target: T1, TATA-box-binding protein (TBP), full-length human (human, UniProt P20226 1-339); assay: pull-down; Flag-tagged TFIIB or its mutants immobilized on Flag beads; TBP or SNAPc as analyte; buffer B2, 1 h at 4°C, four washes, Western blot
T1 construct: human TBP, full length; Two preparations of free TBP are described (Flag/His double-tagged; GST-TBP cleaved with thrombin); also called wild-type TBP; source: E. coli BL21 (DE3), purified (Ni-NTA as Flag- and His-tagged protein, or cut with thrombin from GST-TBP)
T1 sequence (P20226 whole entry): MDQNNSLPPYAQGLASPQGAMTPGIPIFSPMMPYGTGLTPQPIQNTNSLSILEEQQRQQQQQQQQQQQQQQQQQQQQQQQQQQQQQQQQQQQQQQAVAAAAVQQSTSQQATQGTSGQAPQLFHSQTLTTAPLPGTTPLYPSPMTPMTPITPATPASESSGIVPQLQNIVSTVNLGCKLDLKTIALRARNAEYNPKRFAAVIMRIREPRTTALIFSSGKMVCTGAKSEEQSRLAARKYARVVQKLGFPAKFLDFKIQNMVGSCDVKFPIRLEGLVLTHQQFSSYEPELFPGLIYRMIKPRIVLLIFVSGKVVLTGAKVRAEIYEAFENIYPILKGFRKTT

[2] = target: T2, GST-TBP, GST-tagged full-length human TBP (human, UniProt P20226 1-339); assay: pull-down; GST pull-down: GST-TBP, GST-TFIIB or TBP fragments on glutathione beads; analytes in buffer B2 (150 mM NaCl), 1 h at 4°C, four washes, Western blot
T2 construct: human TBP, full length
T2 sequence (P20226 whole entry, the tested form may be a part): as the sequence (P20226 whole entry) above

[3] = target: T1, TATA-box-binding protein (TBP), …; assay: as above

binding result [1]: binds
binding result [2]: binds
B1: TFIIB, full-length human, Flag- and His-tagged (natural protein, UniProt Q00403 1-316, looked up)
chain: MASTSRLDALPRVTCPNHPDAILVEDYRAGDMICPECGLVVGDRVIDVGSEWRTFSNDKATKDPSRVGDSQNPLLSDGDLSTMIGKGTGAASFDEFGNSKYQNRRTMSSSDRAMMNAFKEITTMADRINLPRNIVDRTNNLFKQVYEQKSLKGRANDAIASACLYIACRQEGVPRTFKEICAVSRISKKEIGRCFKLILKALETSVDLITTGDFMSRFCSNLCLPKQVQMAATHIARKAVELDLVPGRSPISVAAAAIYMASQASAEKRTQKEIGDIAGVADVTIRQSYRLIYPRAPDLFPTDFKFDTPVDKLPQL
notes: human TFIIB, full length; also called Flag-tagged TFIIB; wild-type TFIIB; source: E. coli BL21 (DE3), purified (Ni-NTA)

binding result [3]: binds
B2: GST-TFIIB (natural protein, human, UniProt Q00403 1-316, looked up)
chain: B1 chain
notes: TFIIB fused to GST

binding result [1]: binds
B3: TFIIB R169E/K188E, Flag-tagged (natural protein, human, UniProt Q00403 1-316, looked up)
chain: B1 chain with R169E, K188E
notes: human TFIIB with the double R169E/K188E substitution; Probably made as the full-length parent; also called double substitution

binding result [1]: binds
B4: TFIIB R169E, Flag-tagged (natural protein, human, UniProt Q00403 1-316, looked up)
chain: B1 chain with R169E
notes: human TFIIB with a single R169E substitution; Probably made as the full-length parent
